Target: human c-Met on tumor cell lines (human) (UniProt P08581)
Assay: cell-based or functional assay

Sequence of human c-Met on tumor cell lines (human) (P08581 25-1390): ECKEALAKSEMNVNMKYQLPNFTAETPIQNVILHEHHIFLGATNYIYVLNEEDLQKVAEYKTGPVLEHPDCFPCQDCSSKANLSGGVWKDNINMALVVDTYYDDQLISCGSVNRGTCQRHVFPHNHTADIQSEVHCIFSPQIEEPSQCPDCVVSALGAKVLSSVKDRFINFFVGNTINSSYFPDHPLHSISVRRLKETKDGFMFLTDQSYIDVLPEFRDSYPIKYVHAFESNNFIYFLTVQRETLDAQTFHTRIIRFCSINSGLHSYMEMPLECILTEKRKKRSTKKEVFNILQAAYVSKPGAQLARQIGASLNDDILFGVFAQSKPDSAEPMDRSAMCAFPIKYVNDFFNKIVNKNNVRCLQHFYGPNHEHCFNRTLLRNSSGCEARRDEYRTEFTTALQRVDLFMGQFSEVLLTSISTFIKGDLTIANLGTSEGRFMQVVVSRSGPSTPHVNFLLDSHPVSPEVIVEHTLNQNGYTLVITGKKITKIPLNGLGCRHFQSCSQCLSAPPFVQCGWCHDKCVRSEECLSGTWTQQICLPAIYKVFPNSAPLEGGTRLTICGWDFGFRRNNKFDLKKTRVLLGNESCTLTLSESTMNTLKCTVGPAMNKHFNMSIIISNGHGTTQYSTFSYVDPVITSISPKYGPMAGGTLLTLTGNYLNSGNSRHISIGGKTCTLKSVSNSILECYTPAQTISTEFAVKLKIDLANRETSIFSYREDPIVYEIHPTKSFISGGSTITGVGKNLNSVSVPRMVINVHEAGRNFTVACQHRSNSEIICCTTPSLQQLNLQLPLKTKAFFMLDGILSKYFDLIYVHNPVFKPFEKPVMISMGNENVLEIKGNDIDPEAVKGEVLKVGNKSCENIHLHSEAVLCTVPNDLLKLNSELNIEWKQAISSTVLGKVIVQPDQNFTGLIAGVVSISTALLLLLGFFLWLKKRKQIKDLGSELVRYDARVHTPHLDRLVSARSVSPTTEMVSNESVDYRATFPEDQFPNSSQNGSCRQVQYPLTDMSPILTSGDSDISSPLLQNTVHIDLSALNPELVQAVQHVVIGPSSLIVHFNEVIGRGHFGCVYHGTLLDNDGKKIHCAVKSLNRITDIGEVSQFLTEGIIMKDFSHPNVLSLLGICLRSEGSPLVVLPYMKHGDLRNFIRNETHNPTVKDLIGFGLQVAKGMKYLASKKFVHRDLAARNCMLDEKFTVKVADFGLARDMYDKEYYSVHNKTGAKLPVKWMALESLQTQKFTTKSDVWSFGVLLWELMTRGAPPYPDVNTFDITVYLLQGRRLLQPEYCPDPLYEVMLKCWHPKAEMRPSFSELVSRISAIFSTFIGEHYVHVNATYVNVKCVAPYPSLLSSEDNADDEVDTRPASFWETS

| Substance | Endocytosis ratio% at 0 h, EBC-1 cells, 20 nM, flow cytometry | Endocytosis ratio% at 0.5 h, EBC-1 cells, 20 nM, flow cytometry | Endocytosis ratio% at 2 h, EBC-1 cells, 20 nM, flow cytometry | Endocytosis ratio% at 4 h, EBC-1 cells, 20 nM, flow cytometry | Endocytosis ratio% at 24 h, EBC-1 cells, 20 nM, flow cytometry |
| --- | --- | --- | --- | --- | --- |
| ABT-700 (antibody) | 0% | 5.54% | 29.3% | 54.2% | 97.8% |
| Teli-VcMMAE (antibody) | 0% | 4.36% | 31.7% | 58% | 97.3% |

— patent EP4751739A1, “ANTIBODY-DRUG CONJUGATE TARGETING C-MET AND MEDICAL USE THEREOF” (Jiangsu Hengrui Pharmaceuticals Co., Ltd., priority 2023, dated 2025)
